From publication PMC3858840 (2013)
No end group written: not given here.

Biological target: calmodulin (Homo sapiens, UniProt P0DP23)
Test: TMR fluorescence titration

ARRLKKGKKSKRSMNDPY (also: TMR label, site not given here) [TMR-labeled L-selectin cytoplasmic peptide cytoplasmic domain]
Kd: ~1000 nM
